Source: IntAct's records for PubMed 16287128

B1: Matrilin-3 (Homo sapiens), O15232 (parent)
chain: MPRPAPARRLPGLLLLLWPLLLLPSAAPDPVARPGFRRLETRGPGGSPGRRPSPAAPDGAPASGTSEPGRARGAGVCKSRPLDLVFIIDSSRSVRPLEFTKVKTFVSRIIDTLDIGPADTRVAVVNYASTVKIEFQLQAYTDKQSLKQAVGRITPLSTGTMSGLAIQTAMDEAFTVEAGAREPSSNIPKVAIIVTDGRPQDQVNEVAARAQASGIELYAVGVDRADMASLKMMASEPLEEHVFYVETYGVIEKLSSRFQETFCALDPCVLGTHQCQHVCISDGEGKHHCECSQGYTLNADKKTCSALDRCALNTHGCEHICVNDRSGSYHCECYEGYTLNEDRKTCSAQDKCALGTHGCQHICVNDRTGSHHCECYEGYTLNADKKTCSVRDKCALGSHGCQHICVSDGAASYHCDCYPGYTLNEDKKTCSATEEARRLVSTEDACGCEATLAFQDKVSSYLQRLNTKLDDILEKLKINEYGQIHR
partner: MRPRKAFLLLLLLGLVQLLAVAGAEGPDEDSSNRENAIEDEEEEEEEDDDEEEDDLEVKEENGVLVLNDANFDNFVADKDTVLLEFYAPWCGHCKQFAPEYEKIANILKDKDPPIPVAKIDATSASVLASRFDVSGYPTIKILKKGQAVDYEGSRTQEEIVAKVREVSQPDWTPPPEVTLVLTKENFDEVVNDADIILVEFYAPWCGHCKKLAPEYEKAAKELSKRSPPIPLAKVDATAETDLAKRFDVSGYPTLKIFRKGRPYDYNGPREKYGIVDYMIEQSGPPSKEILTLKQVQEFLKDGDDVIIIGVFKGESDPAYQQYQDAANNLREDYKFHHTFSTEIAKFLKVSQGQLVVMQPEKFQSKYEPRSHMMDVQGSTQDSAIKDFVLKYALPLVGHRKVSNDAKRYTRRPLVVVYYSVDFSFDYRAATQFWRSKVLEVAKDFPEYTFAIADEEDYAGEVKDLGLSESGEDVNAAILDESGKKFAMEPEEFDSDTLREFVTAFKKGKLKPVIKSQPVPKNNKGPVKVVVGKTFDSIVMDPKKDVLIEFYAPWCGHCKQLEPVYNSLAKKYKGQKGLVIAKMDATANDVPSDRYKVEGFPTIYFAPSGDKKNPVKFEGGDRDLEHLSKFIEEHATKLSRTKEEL

Variants of: B1
Conditions: with pdia4_human PDIA4, P13667

Row | effect of a mutation on the interaction | Variant
1 | causing an interaction | MPRPAPARRLPGLLLLLWPLLLLPSAAPDPVARPGFRRLETRGPGGSPGRRPSPAAPDGAPASGTSEPGRARGAGVCKSRPLDLVFIIDSSRSVRPLEFTKVKTFVSRIIDTLDIGPADTRVAVVNYASTVKIEFQLQAYTDKQSLKQAVGRITPLSTGTMSGLAIQTAMDEAFTVEAGAREPSSNIPKVAIIVTDGRPQDQVNEVAARAQASGIELYDVGVDRADMASLKMMASEPLEEHVFYVETYGVIEKLSSRFQETFCALDPCVLGTHQCQHVCISDGEGKHHCECSQGYTLNADKKTCSALDRCALNTHGCEHICVNDRSGSYHCECYEGYTLNEDRKTCSAQDKCALGTHGCQHICVNDRTGSHHCECYEGYTLNADKKTCSVRDKCALGSHGCQHICVSDGAASYHCDCYPGYTLNEDKKTCSATEEARRLVSTEDACGCEATLAFQDKVSSYLQRLNTKLDDILEKLKINEYGQIHR [A219D]
2 | causing an interaction | MPRPAPARRLPGLLLLLWPLLLLPSAAPDPVARPGFRRLETRGPGGSPGRRPSPAAPDGAPASGTSEPGRARGAGVCKSRPLDLVFIIDSSRSVRPLEFTKVKTFVSRIIDTLDIGPADTWVAVVNYASTVKIEFQLQAYTDKQSLKQAVGRITPLSTGTMSGLAIQTAMDEAFTVEAGAREPSSNIPKVAIIVTDGRPQDQVNEVAARAQASGIELYAVGVDRADMASLKMMASEPLEEHVFYVETYGVIEKLSSRFQETFCALDPCVLGTHQCQHVCISDGEGKHHCECSQGYTLNADKKTCSALDRCALNTHGCEHICVNDRSGSYHCECYEGYTLNEDRKTCSAQDKCALGTHGCQHICVNDRTGSHHCECYEGYTLNADKKTCSVRDKCALGSHGCQHICVSDGAASYHCDCYPGYTLNEDKKTCSATEEARRLVSTEDACGCEATLAFQDKVSSYLQRLNTKLDDILEKLKINEYGQIHR [R121W]

The next lines start with the variant.

Row | Variant | effect of a mutation on the interaction
3 | MPRPAPARRLPGLLLLLWPLLLLPSAAPDPVARPGFRRLETRGPGGSPGRRPSPAAPDGAPASGTSEPGRARGAGVCKSRPLDLVFIIDSSRSVRPLEFTKVKTFVSRIIDTLDIGPADTRVAVVNYASTVKIEFQLQAYTDKQSLKQAVGRITPLSTGTMSGLAIQTAMDEAFTVEAGAREPSSNIPKVAIIVTDGRPQDQVNEVAARAQASGIELYAVGVDRADMASLKMMASEPLEEHVFYVETYGVIKKLSSRFQETFCALDPCVLGTHQCQHVCISDGEGKHHCECSQGYTLNADKKTCSALDRCALNTHGCEHICVNDRSGSYHCECYEGYTLNEDRKTCSAQDKCALGTHGCQHICVNDRTGSHHCECYEGYTLNADKKTCSVRDKCALGSHGCQHICVSDGAASYHCDCYPGYTLNEDKKTCSATEEARRLVSTEDACGCEATLAFQDKVSSYLQRLNTKLDDILEKLKINEYGQIHR [E252K] | with no effect
4 | MPRPAPARRLPGLLLLLWPLLLLPSAAPDPVARPGFRRLETRGPGGSPGRRPSPAAPDGAPASGTSEPGRARGAGVCKSRPLDLVFIIDSSRSVRPLEFTKVKTFVSRIIDTLDIGPADTRVAVVNYASTVKIEFQLQAYTDKQSLKQAVGRITPLSTGTMSGLAIQTAMDEAFTVEAGAREPSSNIPKVAIIDTDGRPQDQVNEVAARAQASGIELYAVGVDRADMASLKMMASEPLEEHVFYVETYGVIEKLSSRFQETFCALDPCVLGTHQCQHVCISDGEGKHHCECSQGYTLNADKKTCSALDRCALNTHGCEHICVNDRSGSYHCECYEGYTLNEDRKTCSAQDKCALGTHGCQHICVNDRTGSHHCECYEGYTLNADKKTCSVRDKCALGSHGCQHICVSDGAASYHCDCYPGYTLNEDKKTCSATEEARRLVSTEDACGCEATLAFQDKVSSYLQRLNTKLDDILEKLKINEYGQIHR [V194D] | causing an interaction
